B1: TPR t1 (parent)
chain: GACCAAUCUGCCCUCAGAGCUCGAGAACAUCUUCGGAUGCAGAGGAGGCAGGCUUCGGUGGCGCGAUAGCGCCAACGUCCUCAACCUCCAAUGCAUCCCACCACAUGAUGAUGCCUGAAGAGCCUUGGUUUUUUG

The variants in the series derive from B1. Kind of series: polymerase ribozyme fitness, log enrichment relative to wild type (log ratio); higher = more active; in vitro selection for triplet polymerase activity. The method, boiled down:
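Input and output libraries were sequenced on Illumina after a single in vitro selection round, run in triplicate on PCR-built, transcribed mutant libraries of each subunit of a heterodimeric triplet polymerase ribozyme. Selection annealed libraries to a biotinylated primer, the partner subunit and triplets, incubated them frozen at −7 °C, then gel-excised extended constructs for streptavidin-bead capture and RT-PCR. Genotypes with ≥10 input reads and ≥1 read per output were kept. Fitness is the logarithm, taken in base 2, of genotype enrichment divided by wild-type enrichment, using inverse-variance-weighted replicate averages.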
As to GACCAAUCUGCCCUCAGAGCUCGAGAACAUCUUCGGAUGCAGAGUAGUCAGGCUUCGGUGGCGCGAUCGCGCCCACGUCCUCAACCUCCAAUGCGUAUCACCAUAUGAUGAUGCCUGAAGAUCCUUGGUUUUUUG [G45U G48U A68C A74C A95G C97A C98U C104U G122U], the “polymerase ribozyme fitness (log ratio)” value is -6.66. As to GACCAAUCUGCCCUCAGAGCUAGAGAACAUCUUCGGAUGCAGAGGAGGCAGGCUUCGGUGGCGCGAUAGCGCCAACGUCCUCAACGUCCAAUGCAUCCCACCACAUGAUGAUGUCUGAAGAGCCUUGGUUUUUUG [C22A C86G C114U], the “polymerase ribozyme fitness (log ratio)” value is -5.23. Take GACCAAUCUGCCCUCAGAGCUCGAGAACAUCUUCGGAUGCAGAGGAGGCAGGCUUCGGUGCCGCGAUAGCGCCAACGACCUCAACCUCCAAUGCAUCCCACCACAUGAUGAUGCCGGAAGAGCCUUGGUUUUUUG [G61C U78A U116G]: the “polymerase ribozyme fitness (log ratio)” value was -1.8.

GACCAAUCAGCCCUCAGAGCUCGAGAACAUCUUCGGAUGCAGAGGAGGCAGGCUUCGGUGACGCGAUAGCGCCAUCGUCCUCAACCUCCAAUGCAGCCCACCACAUGAUGAUGCCUGAAGGGCCUUGGCUUUUUU [U9A G61A A75U U96G A121G U129C G135U]: the “polymerase ribozyme fitness (log ratio)” value was determined as 0.515. For the variant GACCAAUCUGCCCUCAGAGCCCGAGAAAAUCUUCGGAUGCAGAGGAGGCAGGCUUCGGUGGCACGAUAGCGCCAACGUCCUCAACCUCCAAGGCAUCCCACCACAUGAUGAUGCCUGAAGAGCAUUAGUUUUUUG [U21C C28A G63A U92G C124A G127A], the “polymerase ribozyme fitness (log ratio)” value was -7.31. Turning to GACCAAUCUGCCCUCAGAGCUCGAGAACAUCUUCGGAUGCAGAGGAGGCAGGCUUCGGUGGCGCGAUAGCGCCAACGUCCUCAACCUCCAAUGCAUCCCACCACAUGAUGAUGCCUGAAGAGCCAUGGUUUUCUG [U125A U133C], the “polymerase ribozyme fitness (log ratio)” value was -0.0467. As for GAGCAAUCUGCCCUCAGAGCUCGAGAACAUCUUCGGAUGCAGAGGAGGCAGGCUUCGGUGGCGCGAUAGCGCUAACGUCCUCAACCUCCCAUGCAUCCCACCACAUGAUGAUGCCUGAAGAGCCUUGGUUUUUUG [C3G C73U A90C], the figure is -3.32; as for GACCAAUCUGCCCUCAGAGCUCGAGAACAUCUUCGGAUGCAGAGGAGGCAGGCUUCGGUGGCGCGAUAGCGCCAUCGUCCUCAACCUCCAAUGCAUCCCACCACAUGAUGAUGCCUGAAGAGCCUUGGUUUUUUG [A75U], -0.493. On to GACCAAUCUGCCCACAGAGCUCGAGAACAUCUUCGAAUGCAGAGGAGGCAGGCUUCGGUGGCGCGAUAGCGCCAACGUCCUCAACCUCCAAUGCAUCCCACCACAUGAUGAUGCCUGAAGAGCCUUGGUUUUUUG [U14A G36A], for which the “polymerase ribozyme fitness (log ratio)” value is -3.62. Regarding GACCAAUAUGCCUUCAGAGCUCGAGAACAUAUUCGGAUGCAGAGGAGGCAGGCUUCGGUGUCGCGAUAGCGCCAACGUCCUCAACCUCCAAUGCAACCCACCACAUGAUGAUGCCUGAAGAGCGUUGGUUUUUUG [C8A C13U C31A G61U U96A C124G], the “polymerase ribozyme fitness (log ratio)” value is -5.55. To GACCAAUCUGUCCUCAGAGCUCGAGAACAUCUUCGGAUGCAGAGGAGGCAGGCUUCGGUGGCGCGAUAGCUCCAACGUCCUCAACCUCCAAUGCAUCCCACCACAUGAUGAUGCCUGAAGAGACUUGGUUUUUUG [C11U G71U C123A] belongs 1.29; to GACCAUUCUGCCCUCAGAGCUCAAGAACAUCUUCGGAUGCAGAGGAGGCAGGCUUCGGUGGCGCGAUACCGCCAACGUCCUCAACCUCCAAUGCAUCCCACCACAUGAUGAUGCAUGAAGAGCCUAGGUUGUUUG [A6U G23A G69C C115A U126A U131G], -6.34.

With GACCAAUCUGCCCUCAGAGCUCGAGAACAUCUUCGGAUGCAGAGGAGGUAGGCUUCGGUGGCGCGAUAGCGCCAACGUCCUCAACCUCCACUGCAUCCCACCACAUGAUGAUGCCUGAAGAGACUUGGUUUUUUG [C49U A91C C123A], the “polymerase ribozyme fitness (log ratio)” value was -1.62. On to GACCAAUCUGCCCUCAGAGCUCGAGAACAUCUUCGGAUGUAGAGGAGGCAGGCUUCGGUUGCGCGAUAGCGCCAACGUCCUCAACCUCCAAUGCAUCCCACCACAUGAUAAUGCCUGAAGAGCCUUGGUUUUUUG [C40U G60U G110A], for which the “polymerase ribozyme fitness (log ratio)” value was -1.76.

Take GACCAAUCUGCCCUCACAGCUCGAGAACAUCUUCGGUUGCAGAGGAGGCAGGCGUCGGUGGCGCGAUAGCGCCAACGUCCUCAACCUCCAAUGCAUCCCACCACAUGAUGACGCCUGAAGAGCCUUGGUUUUUUG [G17C A37U U54G U112C]: the “polymerase ribozyme fitness (log ratio)” value was -3.41. As for GACCAAUCUGCCCUCAGAGCUCGAGAACAUCUUUGGAUGCAGAGGAGGCAGGCUUCGGUGGCGCGAUAGCGCCAACGUCCUCAACCUUCAAUGCAUCCCACCACAUGAUGAUGCCUGAAGAGCCUUGGUUUUUUG [C34U C88U], the “polymerase ribozyme fitness (log ratio)” value is -4.26. With GACCAAUCUGCCCUCAGAGCUCGAGAACAUCUUCGGAUGCAGCGGAGGCAGGCUUCGGUGGCGCGAUAGCGCCAACGUCCUCAAUCUCCAAUGCAUCCCACCACAUGAUGAUGCGUGAAGAGCCUUGGUUUUUUG [A43C C85U C115G], the “polymerase ribozyme fitness (log ratio)” value is -4.93. With GACCAAUCUGCCCUCAGAGCUCGAGAACAUCUUCGGAUGCAGAGGAGGCAGGCUUCGGUGGCGCGAUAGCGCCAACGUCCUCAACCUCCAAUGCAUCCUACCACAUGAUGAUGUCUGAAGAGCCUUGGUUUUUUG [C99U C114U], the “polymerase ribozyme fitness (log ratio)” value was -4.12. As to GACCAAUCUGCCCUCAGAGCUCGAGAACAUCUUCGGAAGCAGAGGAGGCAGGCUUCGGUGGCGCGAUAGCGGCAACGUCCUCAACUUCCAAUGCAUCCCACCACAUGAUGAUGCCUGAAGAGCCUUGGUUUUUUU [U38A C72G C86U G135U], the “polymerase ribozyme fitness (log ratio)” value was -3.57.

Turning to GACCAAUCUGCCCUCAGAGCUCGAGAACAUCUUAGGAUGCAGAGGAGGCAGGCUUCGGUGGCGCGAUAGCGCCAACGUGCUCAACCUCCAAUGCAUCCCACCACAUGAUGAUGCCUGAAGAGCCUUGGUUUUUUG [C34A C79G], the “polymerase ribozyme fitness (log ratio)” value was -6.59.

Turning to GACCAAUCUGCCCUCAGAGCUCGAGAACAUCUUCGGAUGCAUAGGAGGCAGGCUUCGGUGGCGCGAUAGUGCCAACGUCCUCAACCUCCAAUGCAUCCCACCACAUGAUGAUGCCUGAAGAGCCUUGGUUUUUUG [G42U C70U], the “polymerase ribozyme fitness (log ratio)” value is -2.26.

These data come from the RNAGym collection of RNA variant scans (doi:10.1073/pnas.2313332121).
